B1: positive control antibody U3 (antibody, human IgG1, kappa, V domains shown)
VH: QVQLQQWGAGLLKPSETLSLTCAVYGGSFSGYYWSWIRQPPGKGLEWIGEINHSGSTNYNPSLKSRVTISVETSKNQFSLKLSSVTAADTAVYYCARDKWTWYFDLWGRGTLVTVSS
VL: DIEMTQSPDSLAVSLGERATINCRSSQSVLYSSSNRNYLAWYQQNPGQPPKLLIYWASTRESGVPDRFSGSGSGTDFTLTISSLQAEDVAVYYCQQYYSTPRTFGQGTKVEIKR
notes: also called U1-59 (WO2007077028A2)
B2: fully human antibody molecule HER3-29 (antibody, human IgG1, kappa, V domains shown)
VH: QVQLVQSGGGLVQPGRSLRLSCAASGFTFDDYAMHWVRQAPGKGLEWVSGISWNSGSIGYADSVKGRFTISRDNAKNSLYLQMNSLRAEDTALYYCAKEGLPGLDYWGQGTLVTVSS
VL: DIQMTQSPSSLSASIGDRATITCRASQHVGTYLNWYQQKPGKTPKLLISGAANLQSGVPSRFSGSGSGTDFTLTISSLQPEDFATYYCQQSYNTPPFSFGQGTKVEIKR
notes: Human IgG1 / kappa; From a fully human natural phage library, expressed in HEK293 and Expi-CHO-S cells; also called antibody HER3-29

Columns and labels:
[1] = biological target: HER3 recombinantly expressed on CHO-K1 cells (human, UniProt P21860 20-643); experiment: cell-based or functional assay
Chain of HER3 recombinantly expressed on CHO-K1 cells (P21860 20-643): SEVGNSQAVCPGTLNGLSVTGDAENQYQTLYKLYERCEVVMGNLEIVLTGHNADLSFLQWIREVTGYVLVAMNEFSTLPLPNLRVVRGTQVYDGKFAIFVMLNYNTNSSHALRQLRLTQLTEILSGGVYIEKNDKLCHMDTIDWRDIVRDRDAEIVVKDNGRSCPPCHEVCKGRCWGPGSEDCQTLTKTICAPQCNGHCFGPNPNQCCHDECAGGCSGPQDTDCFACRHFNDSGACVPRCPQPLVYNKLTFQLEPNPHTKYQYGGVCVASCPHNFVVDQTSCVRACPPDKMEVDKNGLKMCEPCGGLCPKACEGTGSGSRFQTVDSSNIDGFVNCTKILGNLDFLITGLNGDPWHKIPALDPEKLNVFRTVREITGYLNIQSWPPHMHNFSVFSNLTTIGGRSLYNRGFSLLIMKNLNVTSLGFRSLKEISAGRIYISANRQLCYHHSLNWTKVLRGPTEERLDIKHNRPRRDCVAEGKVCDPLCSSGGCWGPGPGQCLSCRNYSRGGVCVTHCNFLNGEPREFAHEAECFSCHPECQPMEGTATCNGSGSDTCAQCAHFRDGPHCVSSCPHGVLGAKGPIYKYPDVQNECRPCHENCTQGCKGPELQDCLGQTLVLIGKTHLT

[2] = biological target: T1, HER3 expressed by MCF7 cells (human, UniProt P21860 20-1342); experiment: flow cytometry on MCF7 cells, geometric mean fluorescence
T1 construct: whole, on cells; Endogenous HER3 on MCF7 cells; also called cells expressing HER3 protein
T1 sequence (P21860 20-1342): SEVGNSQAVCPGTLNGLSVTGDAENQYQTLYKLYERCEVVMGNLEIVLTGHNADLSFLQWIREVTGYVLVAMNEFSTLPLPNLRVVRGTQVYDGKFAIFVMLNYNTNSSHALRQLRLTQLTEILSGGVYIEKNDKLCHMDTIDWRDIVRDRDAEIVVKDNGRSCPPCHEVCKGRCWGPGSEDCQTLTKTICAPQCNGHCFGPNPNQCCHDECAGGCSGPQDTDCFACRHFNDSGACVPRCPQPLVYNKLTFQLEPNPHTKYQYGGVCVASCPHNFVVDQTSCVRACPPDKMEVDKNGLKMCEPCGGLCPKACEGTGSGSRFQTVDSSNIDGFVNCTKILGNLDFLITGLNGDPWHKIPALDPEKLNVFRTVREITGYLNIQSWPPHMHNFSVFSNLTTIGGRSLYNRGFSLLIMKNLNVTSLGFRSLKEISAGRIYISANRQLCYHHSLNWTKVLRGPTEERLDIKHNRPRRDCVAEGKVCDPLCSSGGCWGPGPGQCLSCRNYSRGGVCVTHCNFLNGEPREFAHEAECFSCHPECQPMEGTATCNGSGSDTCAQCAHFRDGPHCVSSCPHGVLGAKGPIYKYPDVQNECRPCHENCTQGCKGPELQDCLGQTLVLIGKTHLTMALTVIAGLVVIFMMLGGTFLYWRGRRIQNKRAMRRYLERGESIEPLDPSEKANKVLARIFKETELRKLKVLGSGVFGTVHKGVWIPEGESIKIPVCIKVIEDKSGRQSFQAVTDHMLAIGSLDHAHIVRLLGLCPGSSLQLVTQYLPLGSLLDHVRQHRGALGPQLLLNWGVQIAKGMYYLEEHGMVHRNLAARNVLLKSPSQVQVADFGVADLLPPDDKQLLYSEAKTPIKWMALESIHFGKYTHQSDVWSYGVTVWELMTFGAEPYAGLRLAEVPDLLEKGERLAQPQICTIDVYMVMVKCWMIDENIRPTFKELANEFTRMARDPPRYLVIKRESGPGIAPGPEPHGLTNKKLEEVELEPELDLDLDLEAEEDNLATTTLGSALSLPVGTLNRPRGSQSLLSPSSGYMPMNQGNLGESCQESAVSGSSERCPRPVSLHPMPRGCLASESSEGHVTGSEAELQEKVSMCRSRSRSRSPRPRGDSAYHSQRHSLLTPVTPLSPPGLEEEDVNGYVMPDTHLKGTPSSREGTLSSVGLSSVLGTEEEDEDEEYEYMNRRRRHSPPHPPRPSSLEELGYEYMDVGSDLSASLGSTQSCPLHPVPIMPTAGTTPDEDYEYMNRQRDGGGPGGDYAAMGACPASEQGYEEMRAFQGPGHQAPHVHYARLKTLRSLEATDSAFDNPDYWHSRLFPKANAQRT
Description: MCF7 cells (ATCC, HTB-22) were suspended in FACS buffer (2% fetal bovine serum (Gibco, 10099141) pH 7.4 PBS (Sigma, P4417-100TAB)) to give a 1×10⁶ cells/mL cell suspension, which was then added to a 96-well round-bottom plate at 100 μL/well. After centrifugation and removal of the supernatant, the test antibody that was diluted with FACS buffer to different concentrations was added at 50 μL/well. The plate was incubated in the dark in a 4° C. refrigerator for 1 h. The plate was washed 3 times with FACS buffer by centrifugation at 300 g, and Alexa Fluor 488 Goat anti-HuMan IgG (H+L) (invitrogen, A-11013) at working concentration was then added. The plate was incubated in the dark in a 4° C. refrigerator for 40 min. The plate was washed 3 times with FACS buffer by centrifugation at 300 g and tested on a BD FACSCantoII flow cytometer for geometric mean fluorescence intensity.

[3] = biological target: T2, HER3 protein (free, coated on the ELISA plate) (UniProt P21860 20-643, limits assumed); experiment: ELISA, HER3 protein coated on the plate, antibody titrated
T2 construct: also called free HER3 protein
T2 sequence (P21860 20-643 limits assumed): as the sequence (P21860 20-643) above
Description: HER3 protein was diluted to 1 μg/mL with pH 7.4 PBS buffer (Shanghai BasalMedia Technologies Co., LTD., B320) and added to a 96-well microplate at 100 μL/well. The plate was incubated at 4° C. overnight. After the liquid was discarded, 300 μL of 5% skim milk (BD, 232100) diluted with PBS was added to each well for blocking, and the plate was incubated at 37° C. for 2 h. After the blocking was completed, the blocking solution was discarded; after the plate was washed 3 times with PBST buffer (pH 7.4 PBS containing 0.1% tween-20), 100 μL of a gradient diluted antibody solution was added to each well, and the plate was incubated at 37° C. for 1 h. After the incubation was completed, the plate was washed 3 times with PBST buffer, and 100 μL of 1:8000 diluted Mouse Anti-HuMan IgG (H+L) (Jackson ImmunoResearch, 209-035-088) was added to each well. The plate was incubated at 37° C. for 1 h. After the plate was washed 3 times with PBST buffer, 100 μL of TMB chromogenic substrate (KPL, 5120-0077) was added to each well, and the plate was incubated at room temperature for 10-15 min. The reaction was terminated by adding 50 μL of 1 M H₂SO₄ to each well. The absorbance readings at 450 nm were taken on a microplate reader, and the binding curves of the antibodies to antigen were fitted with software, as shown in FIG. 1.

Binder	IC50 (nM) (DT3C antibody endocytosis assay, cell killing) [1]	EC50 [2] [nM]	EC50 [3] [nM]
B1	2.81	0.249	0.56
B2	0.51	0.057	0.14

— patent US20240026028A1 (JIANGSU HENGRUI PHARMACEUTICALS, published 2024)
